Key:
[1] = molecular target: human FcRn (GFP-hFcRn construct lacking the endosomal targeting domain, expressed on the plasma membrane of human 293 cells) (human) (UniProt P55899); experiment: flow cytometry competition against hIgG-Alexa Fluor 647 on 293 cells expressing GFP-hFcRn, pH 5.8
[2] = molecular target: human FcRn (GFP-hFcRn construct lacking the endosomal targeting domain, expressed on the plasma membrane of human 293 cells) (human) (UniProt P55899); experiment: flow cytometry competition against hIgG-Alexa Fluor 647 (40 µg/ml) on 293 cells expressing GFP-hFcRn, pH 5.8

Chain of UniProt P55899 (P55899 24-321): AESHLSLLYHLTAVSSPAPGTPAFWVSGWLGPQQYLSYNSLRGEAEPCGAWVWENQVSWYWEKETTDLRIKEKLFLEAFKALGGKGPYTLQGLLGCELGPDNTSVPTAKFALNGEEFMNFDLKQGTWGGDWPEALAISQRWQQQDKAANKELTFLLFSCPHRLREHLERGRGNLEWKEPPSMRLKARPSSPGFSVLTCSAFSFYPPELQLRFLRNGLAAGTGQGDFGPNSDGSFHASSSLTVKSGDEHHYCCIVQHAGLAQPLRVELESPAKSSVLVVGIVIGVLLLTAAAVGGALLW

| fold decrease of IC50 against unconjugated hIgG [1] [fold] | IC50 [2] [µM] | Substance |
| --- | --- | --- |
| 2 | 5.4 | biotinylated human immunoglobulin G (hIgG-biotin) (antibody) |
| – | 11.4 | human immunoglobulin G (hIgG), unconjugated (antibody) |
